± gives the uncertainty stated by the source.
B1: Advillin, residues 785 to 819; numbered along this chain, O75366 (parent)
chain: LSEQDFVSVFGITRGQFAALPGWKQLQMKKEKGLF

Variants of: B1
Experiment: abundance fitness (aPCA) (normalised: wild type 0, dead -1); higher = more abundant; growth selection in yeast, the domain comes from the species named
Conditions: Homo sapiens

Which abundance fitness does the source give for LSEQDFVSVFGITRGQFAALPNWKQLQMKKEKGLF [G22N] here?
Its abundance fitness is -0.2 ± 0.11.

Which abundance fitness does the source give for LSEQDFVSVFGITRGQFAALPQWKQLQMKKEKGLF [G22Q] here?
The abundance fitness was 0.01 ± 0.079.

For LSEQDFVSVFGITRGQFAALPHWKQLQMKKEKGLF [G22H], which abundance fitness is on record?
The abundance fitness was 0.082 ± 0.15.

With LSEQDFVSVFGITRGQFAALPDWKQLQMKKEKGLF [G22D] as the variant, how does the abundance fitness read?
The abundance fitness was -0.104 ± 0.14.

With LSEQDFVSVFGITRGQFAALPAWKQLQMKKEKGLF [G22A] as the variant, how does the abundance fitness read?
Its abundance fitness is -0.016 ± 0.083.

With LSEQDFVSVFGITRGQFAALPSWKQLQMKKEKGLF [G22S] as the variant, how does the abundance fitness read?
The abundance fitness was -0.108 ± 0.078.

With LSEQDFVSVFGITRGQFAALPCWKQLQMKKEKGLF [G22C] as the variant, how does the abundance fitness read?
Its abundance fitness is -0.44 ± 0.16.

For LSEQDFVSVFGITRGQFAALPFWKQLQMKKEKGLF [G22F], which abundance fitness is on record?
Its abundance fitness is -0.138 ± 0.079.

Which abundance fitness does the source give for LSEQDFVSVFGITRGQFAALPKWKQLQMKKEKGLF [G22K] here?
Its abundance fitness is 0.064 ± 0.073.

With LSEQDFVSVFGITRGQFAALPVWKQLQMKKEKGLF [G22V] as the variant, how does the abundance fitness read?
Its abundance fitness is -0.021 ± 0.082.

For LSEQDFVSVFGITRGQFAALPPWKQLQMKKEKGLF [G22P], which abundance fitness is on record?
Its abundance fitness is 0.067 ± 0.065.

For LSEQDFVSVFGITRGQFAALPMWKQLQMKKEKGLF [G22M], which abundance fitness is on record?
Its abundance fitness is -0.084 ± 0.098.

With LSEQDFVSVFGITRGQFAALPLWKQLQMKKEKGLF [G22L] as the variant, how does the abundance fitness read?
The abundance fitness was -0.074 ± 0.091.

With LSEQDFVSVFGITRGQFAALPYWKQLQMKKEKGLF [G22Y] as the variant, how does the abundance fitness read?
Its abundance fitness is -0.093 ± 0.1.

For LSEQDFVSVFGITRGQFAALPRWKQLQMKKEKGLF [G22R], which abundance fitness is on record?
Its abundance fitness is -0.099 ± 0.062.

With LSEQDFVSVFGITRGQFAALPTWKQLQMKKEKGLF [G22T] as the variant, how does the abundance fitness read?
The abundance fitness was 0.005 ± 0.086.

Which abundance fitness does the source give for LSEQDFVSVFGITRGQFAALPIWKQLQMKKEKGLF [G22I] here?
The abundance fitness was -0.162 ± 0.1.

Which abundance fitness does the source give for LSEQDFVSVFGITRGQFAALPWWKQLQMKKEKGLF [G22W] here?
The abundance fitness was -0.405 ± 0.076.

Which abundance fitness does the source give for LSEQDFVSVFGITRGQFAALPEWKQLQMKKEKGLF [G22E] here?
The abundance fitness was 0.069 ± 0.079.

With LSEQDFVSVFGITRGQFAALPGWKQMQMKKEKGLF [L26M] as the variant, how does the abundance fitness read?
Its abundance fitness is -0.114 ± 0.063.

With LSEQDFVSVFGITRGQFAALPGWKQFQMKKEKGLF [L26F] as the variant, how does the abundance fitness read?
The abundance fitness was -0.185 ± 0.15.

For LSEQDFVSVFGITRGQFAALPGWKQDQMKKEKGLF [L26D], which abundance fitness is on record?
Its abundance fitness is -0.01 ± 0.083.

With LSEQDFVSVFGITRGQFAALPGWKQAQMKKEKGLF [L26A] as the variant, how does the abundance fitness read?
The abundance fitness was 0.034 ± 0.063.

For LSEQDFVSVFGITRGQFAALPGWKQKQMKKEKGLF [L26K], which abundance fitness is on record?
Its abundance fitness is 0.068 ± 0.089.

With LSEQDFVSVFGITRGQFAALPGWKQPQMKKEKGLF [L26P] as the variant, how does the abundance fitness read?
The abundance fitness was -0.914 ± 0.18.

For LSEQDFVSVFGITRGQFAALPGWKQCQMKKEKGLF [L26C], which abundance fitness is on record?
Its abundance fitness is -0.606 ± 0.089.

For LSEQDFVSVFGITRGQFAALPGWKQTQMKKEKGLF [L26T], which abundance fitness is on record?
The abundance fitness was -0.075 ± 0.064.

With LSEQDFVSVFGITRGQFAALPGWKQYQMKKEKGLF [L26Y] as the variant, how does the abundance fitness read?
Its abundance fitness is -0.174 ± 0.15.

For LSEQDFVSVFGITRGQFAALPGWKQIQMKKEKGLF [L26I], which abundance fitness is on record?
The abundance fitness was -0.181 ± 0.16.

With LSEQDFVSVFGITRGQFAALPGWKQRQMKKEKGLF [L26R] as the variant, how does the abundance fitness read?
Its abundance fitness is -0.033 ± 0.058.

Which abundance fitness does the source give for LSEQDFVSVFGITRGQFAALPGWKQHQMKKEKGLF [L26H] here?
Its abundance fitness is -0.132 ± 0.14.

With LSEQDFVSVFGITRGQFAALPGWKQGQMKKEKGLF [L26G] as the variant, how does the abundance fitness read?
Its abundance fitness is -0.146 ± 0.067.

For LSEQDFVSVFGITRGQFAALPGWKQVQMKKEKGLF [L26V], which abundance fitness is on record?
The abundance fitness was 0.073 ± 0.057.

For LSEQDFVSVFGITRGQFAALPGWKQSQMKKEKGLF [L26S], which abundance fitness is on record?
The abundance fitness was 0.069 ± 0.07.

With LSEQDFVSVFGITRGQFAALPGWKQQQMKKEKGLF [L26Q] as the variant, how does the abundance fitness read?
Its abundance fitness is 0.12 ± 0.11.

For LSEQDFVSVFGITRGQFAAGPGWKQLQMKKEKGLF [L20G], which abundance fitness is on record?
The abundance fitness was -0.408 ± 0.076.

With LSEQDFVSVFGITRGQFAAYPGWKQLQMKKEKGLF [L20Y] as the variant, how does the abundance fitness read?
The abundance fitness was -0.106 ± 0.19.

For LSEQDFVSVFGITRGQFAASPGWKQLQMKKEKGLF [L20S], which abundance fitness is on record?
The abundance fitness was -0.328 ± 0.062.

With LSEQDFVSVFGITRGQFAAQPGWKQLQMKKEKGLF [L20Q] as the variant, how does the abundance fitness read?
The abundance fitness was -0.368 ± 0.1.

Which abundance fitness does the source give for LSEQDFVSVFGITRGQFAATPGWKQLQMKKEKGLF [L20T] here?
The abundance fitness was -0.424 ± 0.079.

With LSEQDFVSVFGITRGQFAAKPGWKQLQMKKEKGLF [L20K] as the variant, how does the abundance fitness read?
The abundance fitness was -0.639 ± 0.099.

For LSEQDFVSVFGITRGQFAAIPGWKQLQMKKEKGLF [L20I], which abundance fitness is on record?
The abundance fitness was -0.902 ± 0.31.

Which abundance fitness does the source give for LSEQDFVSVFGITRGQFAAHPGWKQLQMKKEKGLF [L20H] here?
The abundance fitness was -0.487 ± 0.1.

Which abundance fitness does the source give for LSEQDFVSVFGITRGQFAAMPGWKQLQMKKEKGLF [L20M] here?
Its abundance fitness is -0.211 ± 0.056.

For LSEQDFVSVFGITRGQFAAWPGWKQLQMKKEKGLF [L20W], which abundance fitness is on record?
The abundance fitness was -0.91 ± 0.16.

For LSEQDFVSVFGITRGQFAARPGWKQLQMKKEKGLF [L20R], which abundance fitness is on record?
The abundance fitness was -0.563 ± 0.059.

For LSEQDFVSVFGITRGQFAAVPGWKQLQMKKEKGLF [L20V], which abundance fitness is on record?
The abundance fitness was -0.753 ± 0.11.

With LSEQDFVSVFGITRGQFAANPGWKQLQMKKEKGLF [L20N] as the variant, how does the abundance fitness read?
Its abundance fitness is -0.248 ± 0.21.

Which abundance fitness does the source give for LSEQDFVSVFGITRGQFAAPPGWKQLQMKKEKGLF [L20P] here?
The abundance fitness was -0.759 ± 0.12.

Which abundance fitness does the source give for LSEQDFVSVFGITRGQFAAFPGWKQLQMKKEKGLF [L20F] here?
The abundance fitness was -0.832 ± 0.18.

Which abundance fitness does the source give for LSEQDFVSVFGITRGQFAALPGWKLLQMKKEKGLF [Q25L] here?
Its abundance fitness is -0.456 ± 0.074.

For LSEQDFVSVFGITRGQFAALPGWKWLQMKKEKGLF [Q25W], which abundance fitness is on record?
The abundance fitness was -1.4 ± 0.15.

Which abundance fitness does the source give for LSEQDFVSVFGITRGQFAALPGWKVLQMKKEKGLF [Q25V] here?
Its abundance fitness is -0.604 ± 0.11.

Which abundance fitness does the source give for LSEQDFVSVFGITRGQFAALPGWKGLQMKKEKGLF [Q25G] here?
The abundance fitness was -0.568 ± 0.073.

For LSEQDFVSVFGITRGQFAALPGWKTLQMKKEKGLF [Q25T], which abundance fitness is on record?
Its abundance fitness is -0.405 ± 0.15.

With LSEQDFVSVFGITRGQFAALPGWKALQMKKEKGLF [Q25A] as the variant, how does the abundance fitness read?
Its abundance fitness is -0.525 ± 0.066.

Which abundance fitness does the source give for LSEQDFVSVFGITRGQFAALPGWKMLQMKKEKGLF [Q25M] here?
Its abundance fitness is -0.507 ± 0.12.

Which abundance fitness does the source give for LSEQDFVSVFGITRGQFAALPGWKCLQMKKEKGLF [Q25C] here?
Its abundance fitness is -0.846 ± 0.17.

For LSEQDFVSVFGITRGQFAALPGWKSLQMKKEKGLF [Q25S], which abundance fitness is on record?
The abundance fitness was -0.735 ± 0.14.

For LSEQDFVSVFGITRGQFAALPGWKNLQMKKEKGLF [Q25N], which abundance fitness is on record?
Its abundance fitness is -0.407 ± 0.12.

With LSEQDFVSVFGITRGQFAALPGWKELQMKKEKGLF [Q25E] as the variant, how does the abundance fitness read?
The abundance fitness was -0.593 ± 0.069.

For LSEQDFVSVFGITRGQFAALPGWKRLQMKKEKGLF [Q25R], which abundance fitness is on record?
The abundance fitness was -0.187 ± 0.07.

Which abundance fitness does the source give for LSEQDFVSVFGITRGQFAALPGWKKLQMKKEKGLF [Q25K] here?
Its abundance fitness is -0.31 ± 0.081.

Which abundance fitness does the source give for LSEQDFVSVFGITRGQFAALPGWKQLQGKKEKGLF [M28G] here?
The abundance fitness was -1.13 ± 0.097.

Which abundance fitness does the source give for LSEQDFVSVFGITRGQFAALPGWKQLQIKKEKGLF [M28I] here?
The abundance fitness was -0.619 ± 0.27.

For LSEQDFVSVFGITRGQFAALPGWKQLQAKKEKGLF [M28A], which abundance fitness is on record?
The abundance fitness was -0.905 ± 0.15.

With LSEQDFVSVFGITRGQFAALPGWKQLQPKKEKGLF [M28P] as the variant, how does the abundance fitness read?
Its abundance fitness is -1.19 ± 0.26.

For LSEQDFVSVFGITRGQFAALPGWKQLQHKKEKGLF [M28H], which abundance fitness is on record?
The abundance fitness was -0.549 ± 0.2.

For LSEQDFVSVFGITRGQFAALPGWKQLQLKKEKGLF [M28L], which abundance fitness is on record?
Its abundance fitness is -0.47 ± 0.11.

Which abundance fitness does the source give for LSEQDFVSVFGITRGQFAALPGWKQLQKKKEKGLF [M28K] here?
Its abundance fitness is -0.708 ± 0.19.
